Legend:
[1] = target: T1, GST-Vip1^1-535 (Saccharomyces cerevisiae, UniProt Q06685); experiment: IP7 formation, PAGE with Toluidine Blue stain; assay type: biochemical; details: 1 µg protein; positive control enzyme
T1 construct: kinase domain residues 1-535, GST tag kept, E. coli Rosetta, purified

[2] = system: O=P(O)(O)O[C@H]1[C@H](OP(=O)(O)O)[C@@H](OP(=O)(O)O)[C@H](OP(=O)(O)O)[C@@H](OP(=O)(O)O)[C@H]1OP(=O)(O)O; experiment: purified protein; details: 0-300 µM IP6; ATP-dependent; 2 µg protein; 6 h

T1 sequence (Q06685 1-535): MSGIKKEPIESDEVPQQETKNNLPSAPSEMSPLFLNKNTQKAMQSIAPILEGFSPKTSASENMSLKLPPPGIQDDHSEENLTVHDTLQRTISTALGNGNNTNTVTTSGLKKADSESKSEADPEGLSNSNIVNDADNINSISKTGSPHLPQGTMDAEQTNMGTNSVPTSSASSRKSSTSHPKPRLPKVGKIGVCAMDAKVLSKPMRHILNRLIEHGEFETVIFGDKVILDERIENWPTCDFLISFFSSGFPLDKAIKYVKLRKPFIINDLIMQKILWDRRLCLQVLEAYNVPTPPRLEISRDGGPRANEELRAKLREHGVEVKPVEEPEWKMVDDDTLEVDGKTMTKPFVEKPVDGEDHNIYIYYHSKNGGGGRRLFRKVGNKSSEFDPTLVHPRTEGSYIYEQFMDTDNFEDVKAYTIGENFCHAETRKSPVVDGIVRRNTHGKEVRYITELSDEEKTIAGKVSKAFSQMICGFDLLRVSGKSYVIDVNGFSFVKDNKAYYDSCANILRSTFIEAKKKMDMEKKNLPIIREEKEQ

## O=P(O)(O)O[C@H]1[C@H](OP(=O)(O)O)[C@@H](OP(=O)(O)O)[C@H](OP(=O)(O)O)[C@@H](OP(=O)(O)O)[C@H]1OP(=O)(O)O [IP6]
[1]
  IP7 formation, PAGE with Toluidine Blue stain: S. cerevisiae Vip1 for which enzymatic activity had been demonstrated was used as a positive control

## GST-Asp1 (full length) (Schizosaccharomyces pombe 972h-)
[2]
  Km: 58.18 µM

## GST-Asp1 (full length) (Schizosaccharomyces pombe 972h-; H397A)
[2]
  Km: 57.32 µM
